Assays:
Conditions in all cases: both partners purified
[1] = molecular target: T1, MPER peptide PDT-081 (HIV-1, strain  (synthetic …)); assay: BLI; Octet RED96; biotinylated peptide PDT-081 (7.5 μg/ml) on streptavidin biosensors; serial dilution of Fab, 5 min association, 5 min dissociation; PBS/0.002% Tween 20/0.01% BSA; KD as koff/kon
T1 construct: also called full-length MPER
T1 sequence (P05877 655-684): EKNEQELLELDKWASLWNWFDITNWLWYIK

[2] = molecular target: T1, MPER peptide PDT-081; assay: ELISA; 250 ng antigen per well coated overnight at 4 °C in PBS; serial dilutions of antibody 1 h at 37 °C; detected with anti-human IgG Fc-HRP
[3] = molecular target: ovalbumin (Gallus gallus (species assumed), UniProt P01012); assay: as above
[4] = molecular target: T2, MPER peptide PDT-081 (HIV-1, strain  (synthetic …)); assay: BLI; Octet RED96; biotinylated MPER peptide PDT-081 (7.5 ug/ml) captured on streptavidin biosensors; serial dilution of Fab, 5 min association, 5 min dissociation; PBS/0.002% Tween 20/0.01% bovine serum albumin; KD = koff/kon from five sensorgrams of the dilution series
T2 construct: also called PDT081pept
T2 sequence (P05877 655-684): as above

[5] = molecular target: T2, MPER peptide PDT-081; assay: as above; remark: listed apart in the source
[6] = molecular target: T2, MPER peptide PDT-081; assay: as above; remark: listed apart in the source
[7] = molecular target: T2, MPER peptide PDT-081; assay: as above; remark: listed apart in the source
[8] = molecular target: T2, MPER peptide PDT-081; assay: as above; remark: listed apart in the source
[9] = molecular target: T2, MPER peptide PDT-081; assay: as above; remark: listed apart in the source

B1: PGZL1 gVmDmJ Fab (Fab, V domains shown)
VH: QVQLVQSGAEVKKPGSSVKVSCKASGGTFSSYAISWVRQAPGQGLEWMGGIIPIFGTANYAQKFQGRVTITADKSTSTAYMELSSLRSEDTAVYYCAREGEGWFGKPLRAFEFWGQGTVITVSS
VL: not shown
notes: also called inferred germline PGZL1 Fab
[1]
  Kd: 64.4 nM

B2: PGZL1 gVgDgJ Fab (Fab, V domains shown)
VH: QVQLVQSGAEVKKPGSSVKVSCKASGGTFSSYAISWVRQAPGQGLEWMGGIIPIFGTANYAQKFQGRVTITADKSTSTAYMELSSLRSEDTAVYYCAREGEGWFGEPLRAFDVWGQGTVITVSS
VL: not shown
[1]
  Kd: 938 nM

B3: PGZL1 gVgDmJ Fab (Fab, V domains shown)
VH: QVQLVQSGAEVKKPGSSVKVSCKASGGTFSSYAISWVRQAPGQGLEWMGGIIPIFGTANYAQKFQGRVTITADKSTSTAYMELSSLRSEDTAVYYCAREGEGWFGEPLRAFEFWGQGTVITVSS
VL: not shown
[1]
  Kd: 148 nM

B4: PGZL1 gVgDgJ IgG (antibody, V domains shown)
VH: QVQLVQSGAEVKKPGSSVKVSCKASGGTFSSYAISWVRQAPGQGLEWMGGIIPIFGTANYAQKFQGRVTITADKSTSTAYMELSSLRSEDTAVYYCAREGEGWFGEPLRAFDVWGQGTVITVSS
VL: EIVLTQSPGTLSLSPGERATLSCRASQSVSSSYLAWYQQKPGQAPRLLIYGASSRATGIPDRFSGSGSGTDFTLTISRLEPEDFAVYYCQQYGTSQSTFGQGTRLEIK
[2]
  fold increase in EC50: 369 fold

B5: 4E10 (antibody, V domains shown)
VH: QVQLVQSGAEVKRPGSSVTVSCKASGGSFSTYALSWVRQAPGRGLEWMGGVIPLLTITNYAPRFQGRITITADRSTSTAYLELNSLRPEDTAVYYCAREGTTGWGWLGKPIGAFAHWGQGTLVTVSS
VL: EIVLTQSPGTQSLSPGERATLSCRASQSVGNNKLAWYQQRPGQAPRLLIYGASSRPSGVADRFSGSGSGTDFTLTISRLEPEDFAVYYCQQYGQSLSTFGQGTKVEVK
notes: also called BnAb 4E10; mature 4E10
[3]
  binding result: binds

B6: 4E10 L100cF (whole antibody) (antibody, V domains shown)
VH: QVQLVQSGAEVKRPGSSVTVSCKASGGSFSTYALSWVRQAPGRGLEWMGGVIPLLTITNYAPRFQGRITITADRSTSTAYLELNSLRPEDTAVYYCAREGTTGWGWFGKPIGAFAHWGQGTLVTVSS
VL: EIVLTQSPGTQSLSPGERATLSCRASQSVGNNKLAWYQQRPGQAPRLLIYGASSRPSGVADRFSGSGSGTDFTLTISRLEPEDFAVYYCQQYGQSLSTFGQGTKVEVK
[3]
  binding result: binds

B7: PGZL1 gVgDmJ Fab (Fab, V domains shown)
VH: QVQLVQSGAEVKKPGSSVKVSCKASGGTFSSYAISWVRQAPGQGLEWMGGIIPIFGTANYAQKFQGRVTITADKSTSTAYMELSSLRSEDTAVYYCAREGEGWFGEPLRAFEFWGQGTVITVSS
VL: not shown
[4]
  koff: 0.00197 s⁻¹
  kon: 13300 M⁻¹ s⁻¹

B8: PGZL1 gVgDgJ Fab (Fab, V domains shown)
VH: QVQLVQSGAEVKKPGSSVKVSCKASGGTFSSYAISWVRQAPGQGLEWMGGIIPIFGTANYAQKFQGRVTITADKSTSTAYMELSSLRSEDTAVYYCAREGEGWFGEPLRAFDVWGQGTVITVSS
VL: not shown
[5]
  koff: 0.00802 s⁻¹
  kon: 8550 M⁻¹ s⁻¹

B9: H4K3_SFS28EPE Fab (Fab, V domains shown)
VH: KVQLVQSGAELKKPWSSVRVSCKASGGEPESYAFNWVRQAPGQRLEWLGGIVPLVSSTNYAQRFRGRVTISADRSTSTVYLEMTGLTSADTAVYFCAREGEGWFGRPLRAFEFWGQGTLVTVST
VL: EIVLTQSPGTFALSPGERATLSCRASQSVSGGALAWYQQKAGQAPRLLIYDTSGRATGVPGRFSGSGSETDFSLTISRLEPEDFAVYYCQQYGTSQSTFGQGTRLETR
[6]
  Kd: 15.1 nM
  koff: 0.000539 s⁻¹
  kon: 35700 M⁻¹ s⁻¹

B10: H4K3_RS73PE Fab (Fab, V domains shown)
VH: KVQLVQSGAELKKPWSSVRVSCKASGGSFSSYAFNWVRQAPGQRLEWLGGIVPLVSSTNYAQRFRGRVTISADPETSTVYLEMTGLTSADTAVYFCAREGEGWFGRPLRAFEFWGQGTLVTVST
VL: EIVLTQSPGTFALSPGERATLSCRASQSVSGGALAWYQQKAGQAPRLLIYDTSGRATGVPGRFSGSGSETDFSLTISRLEPEDFAVYYCQQYGTSQSTFGQGTRLETR
[7]
  Kd: 12.8 nM
  koff: 0.000509 s⁻¹
  kon: 39700 M⁻¹ s⁻¹

B11: H4K3_5M Fab (Fab, V domains shown)
VH: KVQLVQSGAELKKPWSSVRVSCKASGGEPESYAFNWVRQAPGQRLEWLGGIVPLVSSTNYAQRFRGRVTISADPETSTVYLEMTGLTSADTAVYFCAREGEGWFGRPLRAFEFWGQGTLVTVST
VL: EIVLTQSPGTFALSPGERATLSCRASQSVSGGALAWYQQKAGQAPRLLIYDTSGRATGVPGRFSGSGSETDFSLTISRLEPEDFAVYYCQQYGTSQSTFGQGTRLETR
[8]
  Kd: 23.4 nM
  koff: 0.000674 s⁻¹
  kon: 28800 M⁻¹ s⁻¹

B12: PGZL1 gVmDmJ Fab (Fab, V domains shown)
VH: QVQLVQSGAEVKKPGSSVKVSCKASGGTFSSYAISWVRQAPGQGLEWMGGIIPIFGTANYAQKFQGRVTITADKSTSTAYMELSSLRSEDTAVYYCAREGEGWFGKPLRAFEFWGQGTVITVSS
VL: not shown
[9]
  koff: 0.000991 s⁻¹
  kon: 15400 M⁻¹ s⁻¹

— publication PMC6879610 (Nature Communications, 2019)
